Each block holds one binder with its values, some of them ahead of it. Numbered stars: 1 amine (or outer) side, 2 acyl side, 3 side chain; on linkers, the order of the positions; unused ones are H or OH. Bridge positions count the residues as written; N and C are the ends. Square brackets hold non-standard residues; d marks the D form. Side chains are listed from the residue outwards. Ends that are not written are not given here. * marks the point of attachment. C20 diacid = O=C(O)CCCCCCCCCCCCCCCCCCC(=O)*; γGlu = O=C(O)[C@H](CCC(=O)[*:2])N[*:1]
Assays:
[1] = target: T1, human calcitonin receptor (human, UniProt P30988 25-474); test: cell-based or functional assay
T1 sequence (looked up): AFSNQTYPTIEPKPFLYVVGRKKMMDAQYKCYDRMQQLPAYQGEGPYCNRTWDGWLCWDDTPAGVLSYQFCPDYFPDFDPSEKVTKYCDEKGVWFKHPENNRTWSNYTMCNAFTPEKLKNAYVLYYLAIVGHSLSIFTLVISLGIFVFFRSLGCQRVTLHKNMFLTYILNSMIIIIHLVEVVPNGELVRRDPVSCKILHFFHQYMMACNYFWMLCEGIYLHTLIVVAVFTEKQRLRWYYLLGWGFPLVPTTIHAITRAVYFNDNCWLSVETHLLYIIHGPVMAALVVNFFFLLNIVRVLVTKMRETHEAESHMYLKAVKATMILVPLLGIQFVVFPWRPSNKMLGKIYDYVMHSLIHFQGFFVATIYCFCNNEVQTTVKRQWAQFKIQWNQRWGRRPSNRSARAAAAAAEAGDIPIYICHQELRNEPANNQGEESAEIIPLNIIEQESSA

[2] = target: T2, human amylin 3(a) receptor (human calcitonin receptor co-expressed with RAMP-3) (human, UniProt P30988 25-474; O60896 24-148, limits assumed); test: cell-based or functional assay
T2 sequence (looked up) 1: T1 sequence (looked up)
T2 sequence (looked up) 2: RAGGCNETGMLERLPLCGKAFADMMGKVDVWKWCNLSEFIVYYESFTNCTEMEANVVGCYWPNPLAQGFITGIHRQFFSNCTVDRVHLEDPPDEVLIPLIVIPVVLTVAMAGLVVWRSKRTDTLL

[3] = target: T3, human amylin 3(a) receptor (human calcitonin receptor co-expressed with RAMP-3) (human, UniProt P30988 25-474; O60896 24-148, limits assumed); test: cell-based or functional assay; remark: listed apart in the source
T3 sequence (looked up) 1: T1 sequence (looked up)
T3 sequence (looked up) 2: T2 sequence (looked up) 2

[4] = target: T4, human calcitonin receptor (human, UniProt P30988 25-474); test: cell-based or functional assay; remark: listed apart in the source
T4 sequence (looked up): T1 sequence (looked up)

[5] = target: T3, human amylin 3(a) receptor (human …); test: SPA competition binding (Assay V): displacement of 125I-rat amylin from membranes of BHK cells with human calcitonin receptor + RAMP-3
Experimental: (§1) The binding assay was performed using scintillation proximity assay (SPA) beads (RPNQ0001) from PerkinElmer and cell membranes from the Amylin 3(a)/CRE-luc cells (as described in Assay (II)) were used. Membranes were prepared in the following way; the cells were rinsed with PBS and incubated with Versene for approximately 5 min before harvesting. The cells were flushed with PBS and the cell-suspension was centrifuged for 5 min at 1000 rpm. Cells were homogenized (ultrathurrax) in a buffer containing 20 mM Na-HEPES and 10 mM EDTA (pH 7.4) and centrifuged at 20.000 rpm for 15 min. The resulting pellet was resuspended, homogenized and centrifuged (20.000 rpm, 15 min) in a buffer containing 20 mM Na-HEPES and 0.1 mM EDTA (pH 7.4, buffer 2). The resulting pellet was resuspended in buffer 2 and protein concentration was measured (BCA protein Assay, Pierce). The homogenate was kept cold during the whole procedure. The membranes were kept at −80° C. until use. The assay was performed in a 384 well Optiplate (PerkinElmer) in a total volume of 40 ul. Membranes were mixed with SPA beads. Final concentration of membranes 35 ng/μL final and SPA beads was 0.05 mg/well. Test-compounds were dissolved in DMSO and further diluted in assay buffer (50 mM Hepes, pH 7.4, 1 mM CaCl2, 5 mM MgCl₂, 0.1% OA and 0.02% Tween20). […] The final mixture was incubated with shaking at 400 rpm for 120 min at 25° C. prior to centrifugation (1500 rpm, 10 min). Samples were analyzed on TopCounter™ (Packard). The IC₅₀ was calculated using (one site binding competition analysis) GraphPad Prism5 as a measure of receptor affinity.

[6] = target: T5, human amylin 3(a) receptor (human calcitonin receptor + RAMP-3) (human, UniProt P30988 25-474; O60896 24-148, limits assumed); test: SPA competition binding, membranes of BHK cells with human calcitonin receptor + RAMP-3, displacement of 125I-rat amylin (Assay V)
T5 construct: whole, on cells; Whole cells in the luciferase assay (Assay II a); also called hAmylin-R; hAmylinR
T5 sequence (looked up) 1: T1 sequence (looked up)
T5 sequence (looked up) 2: T2 sequence (looked up) 2
Experimental: as §1

[7] = target: T5, human amylin 3(a) receptor (human …); test: cell-based or functional assay
[8] = target: T6, human calcitonin receptor (human, UniProt P30988 25-474); test: cell-based or functional assay; remark: listed apart in the source
T6 sequence (looked up): T1 sequence (looked up)

B1: N^α1-[(4S)-4-carboxy-4-(19-carboxynonadecanoylamino)butanoyl]-[Glu14,Arg17,Pro21,Pro26,Pro37]-h-amylin (peptide)
peptide: {C20 diacid-γGlu}-KCNTATCATQRLAEFLRHSSPNFGAPLSSTNVGSNTP-NH2
modifications: disulfide 2-7
SMILES: CC(C)C[C@H](NC(=O)[C@H](CCCNC(=N)N)NC(=O)[C@H](CCC(N)=O)NC(=O)[C@@H](NC(=O)[C@H](C)NC(=O)[C@@H]1CSSC[C@H](NC(=O)[C@H](CCCCN)NC(=O)CC[C@H](NC(=O)CCCCCCCCCCCCCCCCCCC(=O)O)C(=O)O)C(=O)N[C@@H](CC(N)=O)C(=O)N[C@@H]([C@@H](C)O)C(=O)N[C@@H](C)C(=O)N[C@@H]([C@@H](C)O)C(=O)N1)[C@@H](C)O)C(=O)N[C@@H](C)C(=O)N[C@@H](CCC(=O)O)C(=O)N[C@@H](Cc1ccccc1)C(=O)N[C@@H](CC(C)C)C(=O)N[C@@H](CCCNC(=N)N)C(=O)N[C@@H](Cc1c[nH]cn1)C(=O)N[C@@H](CO)C(=O)N[C@@H](CO)C(=O)N1CCC[C@H]1C(=O)N[C@@H](CC(N)=O)C(=O)N[C@@H](Cc1ccccc1)C(=O)NCC(=O)N[C@@H](C)C(=O)N1CCC[C@H]1C(=O)N[C@@H](CC(C)C)C(=O)N[C@@H](CO)C(=O)N[C@@H](CO)C(=O)N[C@H](C(=O)N[C@@H](CC(N)=O)C(=O)N[C@H](C(=O)NCC(=O)N[C@@H](CO)C(=O)N[C@@H](CC(N)=O)C(=O)N[C@H](C(=O)N1CCC[C@H]1C(N)=O)[C@@H](C)O)C(C)C)[C@@H](C)O
notes: also called compound 5
- IC50 [6]: 0.374 nM
- hAmylin-R funct. EC50 (pM) [7]: 162 pM
- Ratio hCT/hAmylin funct. [8]: 1

B2: N^ε1-[(4S)-4-carboxy-4-(19-carboxynonadecanoylamino)butanoyl]-[Asp14,Arg17,Pro21,Pro27,Pro34,Arg35]-h-amylin (peptide)
peptide: K([γGlu-C20 diacid])CNTATCATQRLADFLRHSSPNFGAIPSSTNVGPRTY-NH2
modifications: disulfide 2-7; N-terminus assumed
SMILES: CC[C@H](C)[C@H](NC(=O)[C@H](C)NC(=O)CNC(=O)[C@H](Cc1ccccc1)NC(=O)[C@H](CC(N)=O)NC(=O)[C@@H]1CCCN1C(=O)[C@H](CO)NC(=O)[C@H](CO)NC(=O)[C@H](Cc1c[nH]cn1)NC(=O)[C@H](CCCNC(=N)N)NC(=O)[C@H](CC(C)C)NC(=O)[C@H](Cc1ccccc1)NC(=O)[C@H](CC(=O)O)NC(=O)[C@H](C)NC(=O)[C@H](CC(C)C)NC(=O)[C@H](CCCNC(=N)N)NC(=O)[C@H](CCC(N)=O)NC(=O)[C@@H](NC(=O)[C@H](C)NC(=O)[C@@H]1CSSC[C@H](NC(=O)[C@@H](N)CCCCNC(=O)CC[C@H](NC(=O)CCCCCCCCCCCCCCCCCCC(=O)O)C(=O)O)C(=O)N[C@@H](CC(N)=O)C(=O)N[C@@H]([C@@H](C)O)C(=O)N[C@@H](C)C(=O)N[C@@H]([C@@H](C)O)C(=O)N1)[C@@H](C)O)C(=O)N1CCC[C@H]1C(=O)N[C@@H](CO)C(=O)N[C@@H](CO)C(=O)N[C@H](C(=O)N[C@@H](CC(N)=O)C(=O)N[C@H](C(=O)NCC(=O)N1CCC[C@H]1C(=O)N[C@@H](CCCNC(=N)N)C(=O)N[C@H](C(=O)N[C@@H](Cc1ccc(O)cc1)C(N)=O)[C@@H](C)O)C(C)C)[C@@H](C)O
- Ratio hCT/hAmylin funct. (hCTR EC50 over hAmylin-R EC50) [3]: 24.9
- hAmylin-R funct. EC50 (CRE luciferase reporter, BHK cells) [3]: 0.146 nM
- hCTR funct. EC50 (CRE luciferase reporter, BHK cells) [4]: 3.64 nM
- IC50 [5]: 0.281 nM

B3: N^ε1-[(4S)-4-carboxy-4-[[(4S)-4-carboxy-4-(19-carboxynonadecanoylamino)butanoyl]amino]butanoyl]-[D-Asp14,Arg17,Pro21,Pro27,Arg35]-h-amylin (peptide)
peptide: K([γGlu-γGlu-C20 diacid])CNTATCATQRLA[dD]FLRHSSPNFGAIPSSTNVGSRTY-NH2
modifications: disulfide 2-7; N-terminus assumed
SMILES: CC[C@H](C)[C@H](NC(=O)[C@H](C)NC(=O)CNC(=O)[C@H](Cc1ccccc1)NC(=O)[C@H](CC(N)=O)NC(=O)[C@@H]1CCCN1C(=O)[C@H](CO)NC(=O)[C@H](CO)NC(=O)[C@H](Cc1c[nH]cn1)NC(=O)[C@H](CCCNC(=N)N)NC(=O)[C@H](CC(C)C)NC(=O)[C@H](Cc1ccccc1)NC(=O)[C@@H](CC(=O)O)NC(=O)[C@H](C)NC(=O)[C@H](CC(C)C)NC(=O)[C@H](CCCNC(=N)N)NC(=O)[C@H](CCC(N)=O)NC(=O)[C@@H](NC(=O)[C@H](C)NC(=O)[C@@H]1CSSC[C@H](NC(=O)[C@@H](N)CCCCNC(=O)CC[C@H](NC(=O)CC[C@H](NC(=O)CCCCCCCCCCCCCCCCCCC(=O)O)C(=O)O)C(=O)O)C(=O)N[C@@H](CC(N)=O)C(=O)N[C@@H]([C@@H](C)O)C(=O)N[C@@H](C)C(=O)N[C@@H]([C@@H](C)O)C(=O)N1)[C@@H](C)O)C(=O)N1CCC[C@H]1C(=O)N[C@@H](CO)C(=O)N[C@@H](CO)C(=O)N[C@H](C(=O)N[C@@H](CC(N)=O)C(=O)N[C@H](C(=O)NCC(=O)N[C@@H](CO)C(=O)N[C@@H](CCCNC(=N)N)C(=O)N[C@H](C(=O)N[C@@H](Cc1ccc(O)cc1)C(N)=O)[C@@H](C)O)C(C)C)[C@@H](C)O
- hAmylin-R funct. EC50 (CRE luciferase reporter, BHK cells) [3]: 0.383 nM
- hCTR funct. EC50 (CRE luciferase reporter, BHK cells) [4]: 100 nM
- IC50 [5]: 0.365 nM

B4: N^α1-[(4S)-4-carboxy-4-(19-carboxynonadecanoylamino)butanoyl]-[Glu14,Arg17,Pro21,Pro25,Pro28,Pro29,Pro37]-h-amylin (peptide)
peptide: {C20 diacid-γGlu}-KCNTATCATQRLAEFLRHSSPNFGPILPPTNVGSNTP-NH2
modifications: disulfide 2-7
SMILES: CC[C@H](C)[C@H](NC(=O)[C@@H]1CCCN1C(=O)CNC(=O)[C@H](Cc1ccccc1)NC(=O)[C@H](CC(N)=O)NC(=O)[C@@H]1CCCN1C(=O)[C@H](CO)NC(=O)[C@H](CO)NC(=O)[C@H](Cc1c[nH]cn1)NC(=O)[C@H](CCCNC(=N)N)NC(=O)[C@H](CC(C)C)NC(=O)[C@H](Cc1ccccc1)NC(=O)[C@H](CCC(=O)O)NC(=O)[C@H](C)NC(=O)[C@H](CC(C)C)NC(=O)[C@H](CCCNC(=N)N)NC(=O)[C@H](CCC(N)=O)NC(=O)[C@@H](NC(=O)[C@H](C)NC(=O)[C@@H]1CSSC[C@H](NC(=O)[C@H](CCCCN)NC(=O)CC[C@H](NC(=O)CCCCCCCCCCCCCCCCCCC(=O)O)C(=O)O)C(=O)N[C@@H](CC(N)=O)C(=O)N[C@@H]([C@@H](C)O)C(=O)N[C@@H](C)C(=O)N[C@@H]([C@@H](C)O)C(=O)N1)[C@@H](C)O)C(=O)N[C@@H](CC(C)C)C(=O)N1CCC[C@H]1C(=O)N1CCC[C@H]1C(=O)N[C@H](C(=O)N[C@@H](CC(N)=O)C(=O)N[C@H](C(=O)NCC(=O)N[C@@H](CO)C(=O)N[C@@H](CC(N)=O)C(=O)N[C@H](C(=O)N1CCC[C@H]1C(N)=O)[C@@H](C)O)C(C)C)[C@@H](C)O
notes: disulfide and C-terminal amide as told for human amylin and the amide resins of the synthesis; also called compound 4
- IC50 [6]: 0.321 nM
- hAmylin-R funct. EC50 (pM) [7]: 60 pM
- Ratio hCT/hAmylin funct. [8]: 1.2

The remaining lines, values ahead:

- hCTR funct. EC50 (pM) [1]: 1120 pM
- Ratio hCT/hAmylin funct. [2]: 3.9
Binder: K([γGlu-C20 diacid])CNTATCATQRLADFLRHSSPNFGAIPSSTNVGPETY-NH2 (disulfide 2-7 (inferred))

- Ratio hCT/hAmylin funct. (hCTR EC50 over hAmylin-R EC50) [3]: 44.9
- hAmylin-R funct. EC50 (CRE luciferase reporter, BHK cells) [3]: 0.162 nM
- hCTR funct. EC50 (CRE luciferase reporter, BHK cells) [4]: 7.28 nM
- IC50 [5]: 0.453 nM
Binder: K([γGlu-γGlu-C20 diacid])CNTATCATQRLADFLRHSSPNFGAIPSSTNVGPRTY-NH2 (disulfide 2-7, also called compound 130)

- IC50 [6]: 0.915 nM
- hAmylin-R funct. EC50 (pM) [7]: 243 pM
- Ratio hCT/hAmylin funct. [8]: 2.2
Binder: {C20 diacid-γGlu}-KCNTATCATQRLAEFLRHSSPNFGAILPSTNVGSETY-NH2 (disulfide 2-7, also called compound 33)

From patent US20140087995A1 (published 2014)
